Data taken from patent publication US20260167673A1, “NOVEL POLYPEPTIDE, POLYPEPTIDE DERIVATIVE AND USE THEREOF” (NANJING ANJI BIOTECHNOLOGY CO., LTD., priority 2023, published 2026).
Substitutions are numbered along the chain they refer to. Where no end group is shown, it is not given here.

T1: AQP2 protein (UniProt P41181 1-271, limits assumed)
T1 construct: also called protein AQP2
T1 sequence (looked up): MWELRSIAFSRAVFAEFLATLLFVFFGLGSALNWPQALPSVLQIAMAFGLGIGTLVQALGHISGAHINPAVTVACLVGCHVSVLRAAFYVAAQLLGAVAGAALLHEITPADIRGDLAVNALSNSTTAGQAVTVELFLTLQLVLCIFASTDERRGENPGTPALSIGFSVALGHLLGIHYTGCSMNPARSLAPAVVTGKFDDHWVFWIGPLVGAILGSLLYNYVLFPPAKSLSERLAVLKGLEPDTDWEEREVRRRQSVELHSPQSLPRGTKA

B1: micropeptide HMMW (peptide)
peptide: MERAGVPGFSPRRSSVEAKMQSTSCSVRKSSTVTAWPAVVLLLSWGQRRGG
notes: 51-residue micropeptide encoded by a lncRNA
B2: HMMW-25A (peptide)
peptide: B1 peptide with C25A
notes: Alanine mutant of HMMW at position 25; solid-phase synthesis
B3: HMMW-10A (peptide)
peptide: B1 peptide with S10A
notes: Alanine mutant of HMMW at position 10; solid-phase synthesis
B4: HMMW-43A (peptide)
peptide: B1 peptide with L43A
notes: Alanine mutant of HMMW at position 43; solid-phase synthesis
B5: HMMW-20A (peptide)
peptide: B1 peptide with M20A
notes: Alanine mutant of HMMW at position 20; solid-phase synthesis
B6: HMMW-32A (peptide)
peptide: B1 peptide with T32A
notes: Alanine mutant of HMMW at position 32; solid-phase synthesis
B7: HMMW-31A (peptide)
peptide: B1 peptide with S31A
notes: Alanine mutant of HMMW at position 31; solid-phase synthesis
B8: HMMW-21A (peptide)
peptide: B1 peptide with Q21A
notes: Alanine mutant of HMMW at position 21; solid-phase synthesis
B9: HMMW-3A (peptide)
peptide: B1 peptide with R3A
notes: Alanine mutant of HMMW at position 3; solid-phase synthesis
B10: HMMW-2A (peptide)
peptide: B1 peptide with E2A
notes: Alanine mutant of HMMW at position 2; solid-phase synthesis
B11: HMMW-27A (peptide)
peptide: B1 peptide with V27A
notes: Alanine mutant of HMMW at position 27; solid-phase synthesis
B12: HMMW-19A (peptide)
peptide: B1 peptide with K19A
notes: Alanine mutant of HMMW at position 19; solid-phase synthesis
B13: HMMW-40A (peptide)
peptide: B1 peptide with V40A
notes: Alanine mutant of HMMW at position 40; solid-phase synthesis
B14: HMMW-9A (peptide)
peptide: B1 peptide with F9A
notes: Alanine mutant of HMMW at position 9; solid-phase synthesis
B15: HMMW-42A (peptide)
peptide: B1 peptide with L42A
notes: Alanine mutant of HMMW at position 42; solid-phase synthesis
B16: HMMW-45A (peptide)
peptide: B1 peptide with W45A
notes: Alanine mutant of HMMW at position 45; solid-phase synthesis
B17: HMMW-17A (peptide)
peptide: B1 peptide with E17A
notes: Alanine mutant of HMMW at position 17; solid-phase synthesis
B18: HMMW-12A (peptide)
peptide: B1 peptide with R12A
notes: Alanine mutant of HMMW at position 12; solid-phase synthesis
B19: HMMW-50A (peptide)
peptide: B1 peptide with G50A
notes: Alanine mutant of HMMW at position 50; solid-phase synthesis
B20: HMMW-49A (peptide)
peptide: B1 peptide with R49A
notes: Alanine mutant of HMMW at position 49; solid-phase synthesis
B21: HMMW-22A (peptide)
peptide: B1 peptide with S22A
notes: Alanine mutant of HMMW at position 22; solid-phase synthesis
B22: HMMW-30A (peptide)
peptide: B1 peptide with S30A
notes: Alanine mutant of HMMW at position 30; solid-phase synthesis
B23: HMMW-41A (peptide)
peptide: B1 peptide with L41A
notes: Alanine mutant of HMMW at position 41; solid-phase synthesis
B24: HMMW-48A (peptide)
peptide: B1 peptide with R48A
notes: Alanine mutant of HMMW at position 48; solid-phase synthesis
B25: HMMW-13A (peptide)
peptide: B1 peptide with R13A
notes: Alanine mutant of HMMW at position 13; solid-phase synthesis
B26: HMMW-8A (peptide)
peptide: B1 peptide with G8A
notes: Alanine mutant of HMMW at position 8; solid-phase synthesis
B27: HMMW-11A (peptide)
peptide: B1 peptide with P11A
notes: Alanine mutant of HMMW at position 11; solid-phase synthesis
B28: HMMW-28A (peptide)
peptide: B1 peptide with R28A
notes: Alanine mutant of HMMW at position 28; solid-phase synthesis
B29: HMMW-44A (peptide)
peptide: B1 peptide with S44A
notes: Alanine mutant of HMMW at position 44; solid-phase synthesis

Tested on: not listed separately
Assay: Solubility of the synthesized polypeptides
Settings: PBS/0.1% DMSO

Molecule	Solubility PBS/0.1% DMSO
MERAGVPGFSPRRSSVEAKMQSTSCSVRKSSTVTAWPAVVLLGQRRGG [HMMW-15]	Soluble
MERAGVPGFSPRRSSVEAKMQSTSCSVRKSSTVPAVVLLLSWGQRRGG [HMMW-12]	Soluble
MERAGVPGFSPRRSSVEAKMQCSVRKSSTVTAWPAVVLLLSWGQRRGG [HMMW-8]	Soluble
MERAGVPGFSPRRSSVEAKMQSTSCSVRKSSTVTAWPAVLSWGQRRGG [HMMW-14]	Soluble
AGVPGFSPRRSSVEAKMQSTSCSVRKSSTVTAWPAVVLLLSWGQRRGG [HMMW-1]	Soluble
MERAGVPGFSPRRSSVEAKMQSTSRKSSTVTAWPAVVLLLSWGQRRGG [HMMW-9]	Soluble
MERAGVPGFSPRRSSKMQSTSCSVRKSSTVTAWPAVVLLLSWGQRRGG [HMMW-6]	Soluble
MERAGVPGFSPRRSSVEASTSCSVRKSSTVTAWPAVVLLLSWGQRRGG [HMMW-7]	Soluble
MERAGVPGFSPRVEAKMQSTSCSVRKSSTVTAWPAVVLLLSWGQRRGG [HMMW-5]	Soluble
MERPGFSPRRSSVEAKMQSTSCSVRKSSTVTAWPAVVLLLSWGQRRGG [HMMW-2]	Soluble
MERAGVPGFSPRRSSVEAKMQSTSCSVRKSSTVTAWPAVVLLLSWRGG [HMMW-16]	Soluble
MERAGVSPRRSSVEAKMQSTSCSVRKSSTVTAWPAVVLLLSWGQRRGG [HMMW-3]	Soluble

Same assay, conditions: polypeptides obtained by chemical solid-phase synthesis

Molecule	solubility
SPRRSSVEAKMQSTSCSVRKSSTVTAWPAVVLLLSWGQRRGG [HMMW10-51]	good solubility
SVEAKMQSTSCSVRKSSTVTAWPAVVLLLSWGQRRGG [HMMW15-51]	good solubility
GVPGFSPRRSSVEAKMQSTSCSVRKSSTVTAWPAVVLLLSWGQRRGG [HMMW5-51]	good solubility
MQSTSCSVRKSSTVTAWPAVVLLLSWGQRRGG [HMMW20-51]	good solubility

Biological target: T1, AQP2 protein
Assay: microscale thermophoresis (MST); column head 'Affinity (µM)'
Settings: not given
Description: Molecular docking simulation was performed on the micropeptide HMMW and a binding protein AQP2 thereof using MOE software, to identify predicted potential interaction sites. The docking simulation was divided into the following two groups: (1) random docking of an AQP2 homotetramer with the HMMW, without limiting a binding region; and (2) random docking of an AQP2 monomer with the HMMW, without limiting a binding region. Interaction sites obtained from the above two docking methods were integrated and analyzed, and all possible binding amino acids were selected as potential key sites for alanine (Ala) mutations. Due to alanine being the smallest chiral amino acid, the impact of a specific amino acid on an overall protein biological activity can be distinguished by systematically and sequentially substituting each amino acid in a sequence with Ala. The predicted polypeptides were obtained by solid-phase synthesis, and the affinity of different mutated polypeptides to the AQP2 protein was detected by microscale thermophoresis (MST) assay.

Molecule	Kd [µM]
B1	3.07
B2	1.97
B3	4.03
B4	0.36
B5	2.59
B6	2.01
B7	3.06
B8	7.64
B9	2.8
B10	2.5
B11	2.39
B12	5.11
B13	1.19
B14	3.95
B15	0.25
B16	3.24
B17	3.93
B18	1.12
B19	0.55
B20	20.8
B21	3.21
B22	2.23
B23	4.32
B24	11.6
B25	6.61
B26	14.8
B27	2.33
B28	2.27
B29	5.23
